For the assay, the target named is GST-PpROP4CA (G15V). Put plainly: pull-down (MBP pull-down, Coomassie-stained SDS-PAGE, band quantification). To be noted: chain shown with the change; three replicates; parent: est. 0.31; read off a plot.
Sequence of GST-PpROP4CA (G15V) (chain, as listed by the source G15V): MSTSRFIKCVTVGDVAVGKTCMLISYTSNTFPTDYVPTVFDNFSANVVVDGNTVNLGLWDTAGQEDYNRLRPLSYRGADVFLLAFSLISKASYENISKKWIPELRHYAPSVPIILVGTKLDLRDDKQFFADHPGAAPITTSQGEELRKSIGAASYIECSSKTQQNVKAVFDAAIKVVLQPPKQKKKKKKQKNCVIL

B1: MBP-PpRopGAP1 (wild type), A0A2K1KNT6 R239L (protein)
chain: MTQVLPTQIHLGSFTPDQSESEDYVNALHYVSDTDTDGYSGNHASPMILGDATISIRELCKEPEARKSGLSHSSSFSSITRGRWGEIGARSRNGSLNRRHSSFRSGSFNRSNNDQERERSAQLSLVALLLATVRRSVLTMCQDVEEGDESSLEIGWPTDVQHVAHVTFDRYNGFLGLPQEFEVEVPGRVPSASQSVFGVSAESMQCSYDHNGNSVPTILLLMQERLYHQGGLKAEGIFLINAENSHHEHVRDQLNKGIVPMDIDSYCLAGLIKAWFRELPQGVLDVLTPEQVLECHTEEESVALVKLLPPTQAALLDWAVNLMADVVQDEVVNKMNARNIAMVFAPNMTQMADPLTALMHAVQVMNLLKTLILRTLKDREEAILEQAQGLTRAEASEGDEPDSECNNVVLTSQERQNSLREEEASKVDCDEYSQRILIPVKRNTKVNSISKSGNLVNTIDHNNQRVEAW
Regarding B1, the other: Protein ratio came to 0.25.

B2: MBP-PpRopGAP1 (wild type), A0A2K1KNT6 H165A (protein)
chain: MTQVLPTQIHLGSFTPDQSESEDYVNALHYVSDTDTDGYSGNHASPMILGDATISIRELCKEPEARKSGLSHSSSFSSITRGRWGEIGARSRNGSLNRRHSSFRSGSFNRSNNDQERERSAQLSLVALLLATVRRSVLTMCQDVEEGDESSLEIGWPTDVQHVAAVTFDRYNGFLGLPQEFEVEVPGRVPSASQSVFGVSAESMQCSYDHNGNSVPTILLLMQERLYHQGGLKAEGIFRINAENSHHEHVRDQLNKGIVPMDIDSYCLAGLIKAWFRELPQGVLDVLTPEQVLECHTEEESVALVKLLPPTQAALLDWAVNLMADVVQDEVVNKMNARNIAMVFAPNMTQMADPLTALMHAVQVMNLLKTLILRTLKDREEAILEQAQGLTRAEASEGDEPDSECNNVVLTSQERQNSLREEEASKVDCDEYSQRILIPVKRNTKVNSISKSGNLVNTIDHNNQRVEAW
As for B2, the other: Protein ratio came to 0.1.
